This experiment deals with 293T cells. The experiment can be described thus: Modified pGL4.72[hRlucCP] vector luciferase assay of RNAi/miRNA activity. Format: cell-based. Conditions: overexpression from pEGFP-C1; 10 nM vector-target RNAi; 48 hours post-transfection; FIG. 30. On the procedure:
To identify additional substrate proteins of PAPR13, immunoprecipitation experiments were performed on lysate from HeLa cells transfected with a pEGFP-C1 plasmid containing a sequence encoding a PARP13-GFP fusion protein following treatment with either 0 or 250 μM sodium arsenite for 30 minutes. The cell lysate was treated with an anti-GFP antibody and the resulting immunoprecipitated proteins were electrophoresed using SDS-PAGE. […] In a second set of experiments, the ability of the vector-target RNAi to reduce the expression of luciferase was measured in 293T cells transfected with pGL4.72[hRlucCP]™ vector, 20 nM vector-target RNAi, and 20 nM of negative RNAi control for PARP13 siRNA (siNeg; AllStars Negative Control siRNA; Qiagen Catalog No. 1027280) or PARP13 siRNA (siPARP13; SEQ ID NO: 40) following treatment with 0 or 30 nM pateamine A for 2 hours. […]
Experiments to determine the effect of knockdown of PARP13 on miRNA and RNAi activity were performed using a modified pGL4.72[hRlucCP]™-vector assay (Promega). […] Following 48-hours incubation, the level of luciferase protein production was measured using a luciferase assay kit (Promega). […]

B1: PARP13: PARP13 overexpressed from a pEGFP-C1 expression vector; isoform not specified (protein)
chain: ADPEVCCFITKILCAHGGRMALDALLQEIALSEPQLCEVLQVAGPDRFVVLETGGEAGITRSVVATTRARVCRRKYCQRPCDNLHLCKLNLLGRCNYSQSERNLCKYSHEVLSEENFKVLKNHELSGLNKEELAVLLLQSDPFFMPEICKSYKGEGRQQICNQQPPCSRLHICDHFTRGNCRFPNCLRSHNLMDRKVLAIMREHGLNPDVVQNIQDICNSKHMQKNPPGPRAPSSHRRNMAYRARSKSRDRFFQGSQEFLASASASAERSCTPSPDQISHRASLEDAPVDDLTRKFTYLGSQDRARPPSGSSKATDLGGTSQAGTSQRFLENGSQEDLLHGNPGSTYLASNSTSAPNWKSLTSWTNDQGARRKTVFSPTLPAARSSLGSLQTPEAVTTRKGTGLLSSDYRIINGKSGTQDIQPGPLFNNNADGVATDITSTRSLNYKSTSSGHREISSPRIQDAGPASRDVQATGRIADDADPRVALVNDSLSDVTSTTSSRVDDHDSEEICLDHLCKGCPLNGSCSKVHFHLPYRWQMLIGKTWTDFEHMETIEKGYCNPGIHLCSVGSYTINFRVMSCDSFPIRRLSTPSSVTKPANSVFTTKWIWYWKNESGTWIQYGEEKDKRKNSNVDSSYLESLYQSCPRGVVPFQAGSRNYELSFQGMIQTNIASKTQKDVIRRPTFVPQWYVQQMKRGPDHQPAKTSSVSLTATFRPQEDFCFLSSKKYKLSEIHHLHPEYVRVSEHFKASMKNFKIEKIKKIENSELLDKFTWKKSQMKEEGKLLFYATSRAYVESICSNNFDSFLHETHENKYGKGIYFAKDAIYSHKNCPYDAKNVVMFVAQVLVGKFTEGNITYTSPPPQFDSCVDTRSNPSVFVIFQKDQVYPQYVIEYTEDKACVIS
Turning to B1, the “decrease in the level of miRNA-mediated repression compared to control cells (EGFP- and G3BP-overexpressing cells)” value came out at 3 fold.
